Measured values from PMC3742746, “A Novel TetR Family Transcriptional Regulator, SAV576, Negatively Controls Avermectin Biosynthesis in Streptomyces avermitilis”.

Molecular target: T1, His6-SAV576 (TetR family regulator) (Streptomyces avermitilis ATCC31267, UniProt Q82QD4 1-218)
T1 sequence: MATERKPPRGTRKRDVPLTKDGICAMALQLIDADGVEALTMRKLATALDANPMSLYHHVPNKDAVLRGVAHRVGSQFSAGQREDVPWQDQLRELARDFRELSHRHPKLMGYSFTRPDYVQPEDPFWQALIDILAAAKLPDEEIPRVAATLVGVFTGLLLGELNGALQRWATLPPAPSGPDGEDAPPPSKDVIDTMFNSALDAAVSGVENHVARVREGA
Assay: EMSA; EMSA: Roche DIG Gel Shift Kit binding buffer (composition not stated), 0.3 nM probe, 1 µg poly[d(I-C)] in 20 µl, 25°C 30 min, 5% PAGE 0.5x TBE; footprinting: 400 ng DNA in 50 µl, 25°C 30 min, DNase I at 37°C
Details: protein: recombinant; tags: His6 (pET-28a); chain copies: 2; label: 3' DIG; blunt

B1: probe 2 (dsDNA)
DNA 1: CCCAGGTCTGCCGATTGAGTTTCCATACGTCGTATGGTACTAC
DNA 2: GTAGTACCATACGACGTATGGAAACTCAATCGGCAGACCTGGG
binding result: binds

B2: probe 2m (dsDNA)
DNA 1: CCCAGGTCTGCCGATTGAGTTTCGAATTCTAAGCTTGTACTAC
DNA 2: GTAGTACAAGCTTAGAATTCGAAACTCAATCGGCAGACCTGGG
binding result: no binding

B3: probe 6m (dsDNA)
DNA 1: AGTCGCGAATTCCAAGCTTGTACCAGCGCCCGCGGCACTGCGG
DNA 2: CCGCAGTGCCGCGGGCGCTGGTACAAGCTTGGAATTCGCGACT
binding result: no binding

B4: probe 6 (dsDNA)
DNA 1: AGTCGCCATACGCTGTACGGTACCAGCGCCCGCGGCACTGCGG
DNA 2: CCGCAGTGCCGCGGGCGCTGGTACCGTACAGCGTATGGCGACT
binding result: binds

B5: probe 1m (dsDNA)
DNA 1: TGAAGCGAATTCGAAGCTTGAAACGGGGCGCTGCCGTACCGGC
DNA 2: GCCGGTACGGCAGCGCCCCGTTTCAAGCTTCGAATTCGCTTCA
binding result: no binding
